Laboratory results: US10941182 (Amgen, dated 2021)
Starred links: 1 amine or outer side, 2 acyl side, 3 side chain; linkers in the order of their positions; H or OH if unused. Non-standard residues stand in square brackets, D forms with d. Primed or numbered codes have the meaning given here. *: point of attachment. NPipG = 2-(piperidin-4-ylamino)acetic acid, O=C(CN(C1CCN([*:3])CC1)[*:1])[*:2]; AC4Abu = α-carboxy-4-aminobutyric acid, O=C(C(CCN[*:1])C(=O)[*:3])[*:2]; Oic = O=C(O)[C@@H]1C[C@@H]2CCCC[C@@H]2N1; Phe(4-Cl) = N[C@@H](Cc1ccc(Cl)cc1)C(=O)O; Phe(4-F) = N[C@@H](Cc1ccc(F)cc1)C(=O)O; γGlu = O=C(O)[C@H](CCC(=O)[*:2])N[*:1]; d(β3hF) = N[C@@H](CC(=O)O)Cc1ccccc1; Igl = N[C@H](C(=O)O)C1Cc2ccccc2C1; NMeR = CN[C@@H](CCCNC(=N)N)C(=O)O; Palmitoyl = CCCCCCCCCCCCCCCC(=O)*; 3Pal = N[C@@H](Cc1cccnc1)C(=O)O; Cha = N[C@@H](CC1CCCCC1)C(=O)O; αMeL = CC(C)C[C@](C)(N)C(=O)O; αMeOrn = C[C@](N)(CCCN)C(=O)O; β3hP = O=C(O)C[C@@H]1CCCN1; Nle = CCCC[C@H](N)C(=O)O; Orn = NCCC[C@H](N)C(=O)O; Dab = NCC[C@H](N)C(=O)O; Pip′ = not defined here; Dap = NC[C@H](N)C(=O)O; AEEA = NCCOCCOCC(=O)O; Aib = CC(C)(N)C(=O)O; NPrGly = CCCNCC(=O)O; BLeu = β-leucine; Sar = CNCC(=O)O

T1: human APJ receptor (human, UniProt P35414 1-380)
T1 sequence (looked up): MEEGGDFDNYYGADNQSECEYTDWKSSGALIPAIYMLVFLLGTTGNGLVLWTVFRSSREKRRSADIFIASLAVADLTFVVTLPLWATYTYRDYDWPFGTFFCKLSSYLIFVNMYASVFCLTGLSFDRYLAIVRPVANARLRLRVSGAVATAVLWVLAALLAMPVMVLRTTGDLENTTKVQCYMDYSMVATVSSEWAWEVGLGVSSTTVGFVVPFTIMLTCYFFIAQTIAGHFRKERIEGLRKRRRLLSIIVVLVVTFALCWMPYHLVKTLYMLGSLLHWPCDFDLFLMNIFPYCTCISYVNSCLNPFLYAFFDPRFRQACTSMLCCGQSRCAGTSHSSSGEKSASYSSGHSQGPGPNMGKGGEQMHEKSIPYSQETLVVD

T2: rat APJ receptor (rat, UniProt Q9JHG3 1-377)
T2 sequence (looked up): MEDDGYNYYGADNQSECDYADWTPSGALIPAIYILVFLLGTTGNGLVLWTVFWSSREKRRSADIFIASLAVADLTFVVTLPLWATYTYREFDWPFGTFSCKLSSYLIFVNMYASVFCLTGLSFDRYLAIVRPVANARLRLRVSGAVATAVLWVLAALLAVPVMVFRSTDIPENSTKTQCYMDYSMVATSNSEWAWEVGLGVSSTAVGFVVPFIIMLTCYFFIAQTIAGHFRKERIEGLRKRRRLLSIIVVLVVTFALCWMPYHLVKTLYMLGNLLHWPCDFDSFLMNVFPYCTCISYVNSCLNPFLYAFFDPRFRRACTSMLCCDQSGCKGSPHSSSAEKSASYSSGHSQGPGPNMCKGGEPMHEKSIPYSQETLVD


Experiments:
human APJ receptor = target: T1, human APJ receptor; assay: cell-based or functional assay
rat APJ receptor = target: T2, rat APJ receptor; assay: cell-based or functional assay

Binder	EC50 Human APJ Receptor (human APJ receptor)	EC50 Rat APJ Receptor (rat APJ receptor)
Palmitoyl-[γGlu][AEEA][AEEA][dQ]RP[NMeR][αMeL]SH[Dap]G[Oic][Nle][β3hP][Phe(4-Cl)]-OH [SEQ ID NO: 639]	3.28 nM	15.4 nM
Palmitoyl-[AC4Abu][AEEA][AEEA][dQ]RP[NMeR][αMeL]SH[Igl]G[Oic][Nle][β3hP][Phe(4-Cl)]-OH [SEQ ID NO: 640]	4.03 nM	25.2 nM
Palmitoyl-[γGlu][AEEA][AEEA][dQ]RP[NMeR][αMeL]SH[NPipG]G[Oic][Nle][β3hP][Phe(4-Cl)]-OH (SMILES CCCCCCCCCCCCCCCC(=O)N[C@@H](CCC(=O)NCCOCCOCC(=O)NCCOCCOCC(=O)N[C@H](CCC(N)=O)C(=O)N[C@@H](CCCNC(=N)N)C(=O)N1CCC[C@H]1C(=O)N(C)[C@@H](CCCNC(=N)N)C(=O)N[C@@](C)(CC(C)C)C(=O)N[C@@H](CO)C(=O)N[C@@H](Cc1c[nH]cn1)C(=O)N(CC(=O)NCC(=O)N1[C@H](C(=O)N[C@@H](CCCC)C(=O)N2CCC[C@H]2CC(=O)N[C@@H](Cc2ccc(Cl)cc2)C(=O)O)C[C@@H]2CCCC[C@@H]21)C1CCNCC1)C(=O)O) [SEQ ID NO: 632]	3.02 nM	22 nM
Palmitoyl-[AC4Abu][AEEA][AEEA][dQ]RP[NMeR][αMeL]SHK[Sar][Oic][Nle][β3hP][Phe(4-Cl)]-OH [SEQ ID NO: 641]	0.58 nM	3.66 nM
Palmitoyl-[γGlu][AEEA][AEEA][dQ]RP[NMeR][αMeL]SHKG[Oic][Nle][β3hP][Phe(4-Cl)]-OH (not fully specified (residue 10)) [SEQ ID NO: 631]	0.338 nM	0.699 nM
Palmitoyl-[γGlu][AEEA][AEEA][dQ]RP[NMeR][αMeL]SH[Orn]G[Oic][Nle][β3hP][Phe(4-Cl)]-OH (SMILES CCCCCCCCCCCCCCCC(=O)N[C@@H](CCC(=O)NCCOCCOCC(=O)NCCOCCOCC(=O)N[C@H](CCC(N)=O)C(=O)N[C@@H](CCCNC(=N)N)C(=O)N1CCC[C@H]1C(=O)N(C)[C@@H](CCCNC(=N)N)C(=O)N[C@@](C)(CC(C)C)C(=O)N[C@@H](CO)C(=O)N[C@@H](Cc1c[nH]cn1)C(=O)N[C@@H](CCCN)C(=O)NCC(=O)N1[C@H](C(=O)N[C@@H](CCCC)C(=O)N2CCC[C@H]2CC(=O)N[C@@H](Cc2ccc(Cl)cc2)C(=O)O)C[C@@H]2CCCC[C@@H]21)C(=O)O) [SEQ ID NO: 634]	0.164 nM	2.21 nM
Palmitoyl-[γGlu][AEEA][AEEA][dQ]RP[NMeR][Cha][BLeu]HKG[Oic][Nle][β3hP][d(β3hF)]-OH [SEQ ID NO: 615]	9.42 nM	23.2 nM
Palmitoyl-[AC4Abu][AEEA][AEEA][dQ]RP[NMeR][Cha][NPrGly]HKG[Pip′][Nle][Aib][Phe(4-Cl)]-OH [SEQ ID NO: 643]	0.463 nM	3.79 nM
Palmitoyl-[γGlu][AEEA][AEEA][dQ]RP[NMeR][Cha]S[Dap]KG[Oic][Nle][β3hP][d(β3hF)]-OH (SMILES CCCCCCCCCCCCCCCC(=O)N[C@@H](CCC(=O)NCCOCCOCC(=O)NCCOCCOCC(=O)N[C@H](CCC(N)=O)C(=O)N[C@@H](CCCNC(=N)N)C(=O)N1CCC[C@H]1C(=O)N(C)[C@@H](CCCNC(=N)N)C(=O)N[C@@H](CC1CCCCC1)C(=O)N[C@@H](CO)C(=O)N[C@@H](CN)C(=O)N[C@@H](CCCCN)C(=O)NCC(=O)N1[C@H](C(=O)N[C@@H](CCCC)C(=O)N2CCC[C@H]2CC(=O)N[C@@H](CC(=O)O)Cc2ccccc2)C[C@@H]2CCCC[C@@H]21)C(=O)O) [SEQ ID NO: 616]	2.75 nM	17.2 nM
Palmitoyl-[AC4Abu][AEEA][AEEA][dQ]RP[NMeR][Cha]S[NPrGly]KG[Pip′][Nle][Aib][Phe(4-Cl)]-OH [SEQ ID NO: 644]	1.4 nM	4.2 nM
Palmitoyl-[γGlu][AEEA][AEEA][dQ]RP[NMeR][Cha]SH[3Pal]G[Oic][Nle][β3hP][d(β3hF)]-OH (SMILES CCCCCCCCCCCCCCCC(=O)N[C@@H](CCC(=O)NCCOCCOCC(=O)NCCOCCOCC(=O)N[C@H](CCC(N)=O)C(=O)N[C@@H](CCCNC(=N)N)C(=O)N1CCC[C@H]1C(=O)N(C)[C@@H](CCCNC(=N)N)C(=O)N[C@@H](CC1CCCCC1)C(=O)N[C@@H](CO)C(=O)N[C@@H](Cc1c[nH]cn1)C(=O)N[C@@H](Cc1cccnc1)C(=O)NCC(=O)N1[C@H](C(=O)N[C@@H](CCCC)C(=O)N2CCC[C@H]2CC(=O)N[C@@H](CC(=O)O)Cc2ccccc2)C[C@@H]2CCCC[C@@H]21)C(=O)O) [SEQ ID NO: 620]	7.42 nM	14.9 nM
Palmitoyl-[γGlu][AEEA][AEEA][dQ]RP[NMeR][Cha]SH[Phe(4-Cl)]G[Oic][Nle][β3hP][d(β3hF)]-OH (SMILES CCCCCCCCCCCCCCCC(=O)N[C@@H](CCC(=O)NCCOCCOCC(=O)NCCOCCOCC(=O)N[C@H](CCC(N)=O)C(=O)N[C@@H](CCCNC(=N)N)C(=O)N1CCC[C@H]1C(=O)N(C)[C@@H](CCCNC(=N)N)C(=O)N[C@@H](CC1CCCCC1)C(=O)N[C@@H](CO)C(=O)N[C@@H](Cc1c[nH]cn1)C(=O)N[C@@H](Cc1ccc(Cl)cc1)C(=O)NCC(=O)N1[C@H](C(=O)N[C@@H](CCCC)C(=O)N2CCC[C@H]2CC(=O)N[C@@H](CC(=O)O)Cc2ccccc2)C[C@@H]2CCCC[C@@H]21)C(=O)O) [SEQ ID NO: 621]	16.4 nM	26.1 nM
Palmitoyl-[γGlu][AEEA][AEEA][dQ]RP[NMeR][Cha]SH[Phe(4-F)]G[Oic][Nle][β3hP][d(β3hF)]-OH (SMILES CCCCCCCCCCCCCCCC(=O)N[C@@H](CCC(=O)NCCOCCOCC(=O)NCCOCCOCC(=O)N[C@H](CCC(N)=O)C(=O)N[C@@H](CCCNC(=N)N)C(=O)N1CCC[C@H]1C(=O)N(C)[C@@H](CCCNC(=N)N)C(=O)N[C@@H](CC1CCCCC1)C(=O)N[C@@H](CO)C(=O)N[C@@H](Cc1c[nH]cn1)C(=O)N[C@@H](Cc1ccc(F)cc1)C(=O)NCC(=O)N1[C@H](C(=O)N[C@@H](CCCC)C(=O)N2CCC[C@H]2CC(=O)N[C@@H](CC(=O)O)Cc2ccccc2)C[C@@H]2CCCC[C@@H]21)C(=O)O) [SEQ ID NO: 622]	11.8 nM	19.7 nM
Palmitoyl-[γGlu][AEEA][AEEA][dQ]RP[NMeR][Cha]SH[αMeOrn]G[Oic][Nle][β3hP][d(β3hF)]-OH (SMILES CCCCCCCCCCCCCCCC(=O)N[C@@H](CCC(=O)NCCOCCOCC(=O)NCCOCCOCC(=O)N[C@H](CCC(N)=O)C(=O)N[C@@H](CCCNC(=N)N)C(=O)N1CCC[C@H]1C(=O)N(C)[C@@H](CCCNC(=N)N)C(=O)N[C@@H](CC1CCCCC1)C(=O)N[C@@H](CO)C(=O)N[C@@H](Cc1c[nH]cn1)C(=O)N[C@@](C)(CCCN)C(=O)NCC(=O)N1[C@H](C(=O)N[C@@H](CCCC)C(=O)N2CCC[C@H]2CC(=O)N[C@@H](CC(=O)O)Cc2ccccc2)C[C@@H]2CCCC[C@@H]21)C(=O)O) [SEQ ID NO: 619]	26.2 nM	125 nM
Palmitoyl-[γGlu][AEEA][AEEA][dQ]RP[NMeR][Cha]SH[Dab]G[Oic][Nle][β3hP][d(β3hF)]-OH (SMILES CCCCCCCCCCCCCCCC(=O)N[C@@H](CCC(=O)NCCOCCOCC(=O)NCCOCCOCC(=O)N[C@H](CCC(N)=O)C(=O)N[C@@H](CCCNC(=N)N)C(=O)N1CCC[C@H]1C(=O)N(C)[C@@H](CCCNC(=N)N)C(=O)N[C@@H](CC1CCCCC1)C(=O)N[C@@H](CO)C(=O)N[C@@H](Cc1c[nH]cn1)C(=O)N[C@@H](CCN)C(=O)NCC(=O)N1[C@H](C(=O)N[C@@H](CCCC)C(=O)N2CCC[C@H]2CC(=O)N[C@@H](CC(=O)O)Cc2ccccc2)C[C@@H]2CCCC[C@@H]21)C(=O)O) [SEQ ID NO: 623]	1.43 nM	9.16 nM
